The results in this text go back to doi:10.1101/2023.10.27.564484, “Insights into Molecular Diversity within the FET Family: Unraveling Phase Separation of the N-Terminal Low Complexity Domain from RNA-Binding Protein EWS” (bioRxiv, 2023).

Numbering of substitutions follows the chain as printed. Names may count otherwise.

One series deals with EWS^LCD,13YS (UniProt Q01844). Briefly: pelleting assay (phase separation). The note with it: 50 µM protein, 150 mM NaCl, 20 mM Tris pH 7.4; parent: est. 0.36; read off a plot.
The target in the next series is EWS^LCD,7YS (UniProt Q01844). Description: pelleting assay (phase separation). The note with it: 50 µM protein, 150 mM NaCl, 20 mM Tris pH 7.4; parent: est. 0.36; read off a plot.
Series [1] deals with the molecule itself. Description: turbidity (phase separation) with brightfield imaging; stock diluted into 20 mM Tris buffer with varied protein, NaCl, pH or temperature in microwell plates; absorbance and brightfield images of droplets.
Series [2] deals with the molecule itself. Briefly: co-sedimentation; pelleting of condensates: stock in CAPS pH 11 diluted into 20 mM Tris pH 7.4-7.5, 150 mM NaCl, 18,000 g for 15 min at room temperature, A280 of the supernatant; protein 25-400 µM, mutants at 50 µM.

“EWS low-complexity domain (N-terminal 264 residues of RNA-binding protein EWS) (from UniProt Q01844) 13YS”: in the series with EWS^LCD,13YS, the other: fraction soluble came to 1.
As to “EWS low-complexity domain (N-terminal 264 residues of RNA-binding protein EWS) (from UniProt Q01844) 7YS”, in the series with EWS^LCD,7YS, the other: fraction soluble came to 0.92.

B1: EWS low-complexity domain (N-terminal 264 residues of RNA-binding protein EWS) (domain or fragment)
chain: GAMASTDYSTYSQAAAQQGYSAYTAQPTQGYAQTTQAYGQQSYGTYGQPTDVSYTQAQTTATYGQTAYATSYGQPPTGYTTPTAPQAYSQPVQGYGTGAYDTTTATVTTTQASYAAQSAYGTQPAYPAYGQQPAATAPTRPQDGNKPTETSQPQSSTGGYNQPSLGYGQSNYSYPQVPGSYPMQPVTAPPSYPPTSYSSTQPTSYDQSSYSQQNTYGQPSSYGQQSSYGQQSSYGQQPPTSYPPQTGSYSQAPSQYSQQSSSYGQQ
notes: two residue (Gly, Ala) cloning scar left after TEV cleavage; not included in the numbering; 15N-enriched in the intermolecular PRE experiment; unlabelled in turbidity and pelleting assays; also called EWS^LCD; EWS LCD; source: E. coli BL21 DE3 Star, purified (IMAC in urea, TEV cleavage, second IMAC, SEC); not shown: His8, N-terminal, cleaved
For the molecule B1, the binding result in series [1] is listed as “binds”.

B2: EWS^LCD,Y170S/Y172S (domain or fragment)
chain: B1 chain with Y172S, Y174S
notes: two residue (Gly, Ala) cloning scar left after TEV cleavage; not included in the numbering; also called Y170/Y172S; source: E. coli BL21 DE3 Star, purified (IMAC, TEV cleavage, SEC); not shown: His8, N-terminal, cleaved
Consider B2, for which, in series [1], the binding result is on record as “binds”.

B3: EWS^LCD Y44S (domain or fragment)
chain: B1 chain with Y46S
notes: two residue (Gly, Ala) cloning scar left after TEV cleavage; not included in the numbering; source: E. coli BL21 DE3 Star, purified (IMAC, TEV cleavage, SEC); not shown: His8, N-terminal, cleaved
Consider B3, for which the binding result in series [2] was “binds”.

B4: EWS^LCD Y208S (domain or fragment)
chain: B1 chain with Y210S
notes: as for B3
Turning to B4, the binding result in series [2] is recorded as “binds”.

B5: EWS^LCD Y172S (domain or fragment)
chain: B1 chain with Y174S
notes: as for B3
For the molecule B5, the binding result in series [2] is “binds”.
